Data from patent US9677045B2, “Microorganisms and methods for production of 4-hydroxybutyrate, 1,4-butanediol and related compounds” (priority 2012, dated 2017).
Read-outs that look alike come from different tables or passages of the source. Marks after values point to notes of the source that are not given here.

How the values were obtained:
[1] = target: T1, L(+)-lactate dehydrogenase from A. eutrophus (R. eutropha ldhA) (Cupriavidus necator, UniProt Q07251); details: compared with that on pyruvate; cited from earlier work
T1 sequence (Q07251 1-349): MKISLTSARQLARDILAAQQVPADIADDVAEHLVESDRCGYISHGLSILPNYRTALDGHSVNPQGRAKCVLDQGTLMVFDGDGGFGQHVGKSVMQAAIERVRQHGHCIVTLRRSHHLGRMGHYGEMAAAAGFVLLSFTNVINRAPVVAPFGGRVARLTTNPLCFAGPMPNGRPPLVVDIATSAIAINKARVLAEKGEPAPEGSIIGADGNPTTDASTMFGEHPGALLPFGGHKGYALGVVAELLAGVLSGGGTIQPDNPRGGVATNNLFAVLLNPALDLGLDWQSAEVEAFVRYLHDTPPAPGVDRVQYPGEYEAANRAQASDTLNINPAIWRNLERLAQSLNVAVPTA

[2] = test system: alcohol dehydrogenase from Brevibacterium sp KU 1309; details: reduction of carbonyl compounds; cited from earlier work
[3] = test system: alcohol dehydrogenase from Brevibacterium sp KU; details: oxidation of alcohols; activity of 2-phenylethanol taken as 100%; cited from earlier work
[4] = cytoplasmic pH, typically 7.4; cited from earlier work
[5] = test system: cytochrome oxidases from E. coli; details: cited from earlier work; for Km: read-out: Km for O2
[6] = test system: NADH dehydrogenases and cytochrome oxidases; details: aerobic growth, from Noguchi et al., 2004, cited from earlier work
[7] = test system: 1,4-butanediol pathway
Protocol: Ten mL micro-aerobic cultures were started by inoculating fresh minimal in vivo conversion medium (see below) containing the appropriate antibiotics with 1% of the first cultures.
Microaerobic conditions were established by initially flushing capped anaerobic bottles with nitrogen for 5 minutes, then piercing the septum with an 18G needle following inoculation. The needle was kept in the bottle during growth to allow a small amount of air to enter the bottles. Protein expression was induced with 0.2 mM IPTG when the culture reached mid-log growth phase. This is considered: time=0 hr.

[8] = host strain ECKh-432 with pZS*13S plasmid, culture supernatant, micro-aerobic

CCC(C)C(=O)C(=O)O (centres unmarked) [3-Methyl-2-oxovalerate]
Activity (%) of L(+)-lactate dehydrogenase from A. eutrophus [1]: 5.3%

CC(C=O)c1ccccc1 (centres unmarked) [2-Phenylpropionaldehyde]
Km [2]: 864 µM

CCCCCCCCCCCCO [Sample 1-Dodecanol, 1-Dodecanol]
Relative Activity [3]: 68 0%

CC(C)O [Sample 2-Propanol, 2-Propanol]
Relative Activity [3]: 54 0%

CC(C)CC(=O)C(=O)O [4-Methyl-2-oxopentanoate]
Activity (%) of L(+)-lactate dehydrogenase from A. eutrophus [1]: 39.0%

O=CC(=O)O [Glyoxylate]
Activity (%) of L(+)-lactate dehydrogenase from A. eutrophus [1]: 8.7%

O=C1CCCO1 [GBL, γ-butyrolactone]
lactone/hydroxyacid equilibrium [4]: hydrolysis of the GBL lactone is favored

CC(O)c1ccccc1 (centres unmarked) [1-Phenylethanol]
Relative Activity [3]: 46 0%

cytochrome bd oxidase: E. coli cytochrome bd oxidase (cyd operon)
Km [5]: 0.01 µM

C[C@@H](CO)c1ccccc1 [(R)-2-Phenylpropanol]
Relative Activity [3]: 63 0%

O=CCc1ccccc1 [Phenylacetaldehyde]
Km [2]: 261 µM

CCO [Ethanol]
Relative Activity [3]: 76 0%

B1: NDH-2 (protein, UniProt P00393 2-434, looked up)
Type II NADH:quinone …: TTPLKKIVIVGGGAGGLEMATQLGHKLGRKKKAKITLVDRNHSHLWKPLLHEVATGSLDEGVDALSYLAHARNHGFQFQLGSVIDIDREAKTITIAELRDEKGELLVPERKIAYDTLVMALGSTSNDFNTPGVKENCIFLDNPHQARRFHQEMLNLFLKYSANLGANGKVNIAIVGGGATGVELSAELHNAVKQLHSYGYKGLTNEALNVTLVEAGERILPALPPRISAAAHNELTKLGVRVLTQTMVTSADEGGLHTKDGEYIEADLMVWAAGIKAPDFLKDIGGLETNRINQLVVEPTLQTTRDPDIYAIGDCASCPRPEGGFVPPRAQAAHQMATCAMNNILAQMNGKPLKNYQYKDHGSLVSLSNFSTVGSLMGNLTRGSMMIEGRIARFVYISLYRMHQIALHGYFKTGLMMLVGSINRVIRPRLKLH
Concentrations of NADH dehydrogenases and cytochrome oxidase ([6]; Limited glucose (early stationary)): 0.70 ± 0.03 μmol/s/mg of protein | Concentrations of NADH dehydrogenases and cytochrome oxidase ([6]; Standard glucose (early stationary: 8 h)): 0.88 ± 0.01 μmol/s/mg of protein | Concentrations of NADH dehydrogenases and cytochrome oxidase ([6]; Standard glucose (exponential: 3 h)): 1.11 ± 0.06 μmol/s/mg of protein | Concentrations of NADH dehydrogenases and cytochrome oxidase ([6]; Standard glucose (exponential: 5 h)): 0.86 ± 0.03 μmol/s/mg of protein

B2: GNM_720: car gene, carboxylic acid reductase from Nocardia iowensis (protein, listed as Nocardia iowensis)
chain: MAVDSPDERLQRRIAQLFAEDEQVKAARPLEAVSAAVSAPGMRLAQIAATVMAGYADRPAAGQRAFELNTDDATGRTSLRLLPRFETITYRELWQRVGEVAAAWHHDPENPLRAGDFVALLGFTSIDYATLDLADIHLGAVTVPLQASAAVSQLIAILTETSPRLLASTPEHLDAAVECLLAGTTPERLVVFDYHPEDDDQRAAFESARRRLADAGSLVIVETLDAVRARGRDLPAAPLFVPDTDDDPLALLIYTSGSTGTPKGAMYTNRLAATMWQGNSMLQGNSQRVGINLNYMPMSHIAGRISLFGVLARGGTAYFAAKSDMSTLFEDIGLVRPTEIFFVPRVCDMVFQRYQSELDRRSVAGADLDTLDREVKADLRQNYLGGRFLVAVVGSAPLAAEMKTFMESVLDLPLHDGYGSTEAGASVLLDNQIQRPPVLDYKLVDVPELGYFRTDRPHPRGELLLKAETTIPGYYKRPEVTAEIFDEDGFYKTGDIVAELEHDRLVYVDRRNNVLKLSQGEFVTVAHLEAVFASSPLIRQIFIYGSSERSYLLAVIVPTDDALRGRDTATLKSALAESIQRIAKDANLQPYEIPRDFLIETEPFTIANGLLSGIAKLLRPNLKERYGAQLEQMYTDLATGQADELLALRREAADLPVLETVSRAAKAMLGVASADMRPDAHFTDLGGDSLSALSFSNLLHEIFGVEVPVGVVVSPANELRDLANYIEAERNSGAKRPTFTSVHGGGSEIRAADLTLDKFIDARTLAAADSIPHAPVPAQTVLLTGANGYLGRFLCLEWLERLDKTGGTLICVVRGSDAAAARKRLDSAFDSGDPGLLEHYQQLAARTLEVLAGDIGDPNLGLDDATWQRLAETVDLIVHPAALVNHVLPYTQLFGPNVVGTAEIVRLAITARRKPVTYLSTVGVADQVDPAEYQEDSDVREMSAVRVVRESYANGYGNSKWAGEVLLREAHDLCGLPVAVFRSDMILAHSRYAGQLNVQDVFTRLILSLVATGIAPYSFYRTDADGNRQRAHYDGLPADFTAAAITALGIQATEGFRTYDVLNPYDDGISLDEFVDWLVESGHPIQRITDYSDWFHRFETAIRALPEKQRQASVLPLLDAYRNPCPAVRGAILPAKEFQAAVQTAKIGPEQDIPHLSAPLIDKYVSDLELLQLL
BDO formation in ECKh-432 [7]: required for BDO formation | ETOHEnz (ethanol) [7, 8]: >LLOQ | GBL (gamma-butyrolactone) [7, 8]: 0.07 mM | LA (lactate) [7, 8]: 0.10 mM | SA (succinate) [7, 8]: 0.00 mM

B3: cytochrome bo oxidase: E. coli cytochrome bo oxidase (cyo operon) (protein, UniProt P0ABJ1 25-315; P0ABI8 1-663; P0ABJ3 1-204; P0ABJ6 1-109, looked up)
Cytochrome bo(3) ubiquinol … 1: CNSALLDPKGQIGLEQRSLILTAFGLMLIVVIPAILMAVGFAWKYRASNKDAKYSPNWSHSNKVEAVVWTVPILIIIFLAVLTWKTTHALEPSKPLAHDEKPITIEVVSMDWKWFFIYPEQGIATVNEIAFPANTPVYFKVTSNSVMNSFFIPRLGSQIYAMAGMQTRLHLIANEPGTYDGISASYSGPGFSGMKFKAIATPDRAAFDQWVAKAKQSPNTMSDMAAFEKLAAPSEYNQVEYFSNVKPDLFADVINKFMAHGKSMDMTQPEGEHSAHEGMEGMDMSHAESAH
Cytochrome bo(3) ubiquinol … 2: MFGKLSLDAVPFHEPIVMVTIAGIILGGLALVGLITYFGKWTYLWKEWLTSVDHKRLGIMYIIVAIVMLLRGFADAIMMRSQQALASAGEAGFLPPHHYDQIFTAHGVIMIFFVAMPFVIGLMNLVVPLQIGARDVAFPFLNNLSFWFTVVGVILVNVSLGVGEFAQTGWLAYPPLSGIEYSPGVGVDYWIWSLQLSGIGTTLTGINFFVTILKMRAPGMTMFKMPVFTWASLCANVLIIASFPILTVTVALLTLDRYLGTHFFTNDMGGNMMMYINLIWAWGHPEVYILILPVFGVFSEIAATFSRKRLFGYTSLVWATVCITVLSFIVWLHHFFTMGAGANVNAFFGITTMIIAIPTGVKIFNWLFTMYQGRIVFHSAMLWTIGFIVTFSVGGMTGVLLAVPGADFVLHNSLFLIAHFHNVIIGGVVFGCFAGMTYWWPKAFGFKLNETWGKRAFWFWIIGFFVAFMPLYALGFMGMTRRLSQQIDPQFHTMLMIAASGAVLIALGILCLVIQMYVSIRDRDQNRDLTGDPWGGRTLEWATSSPPPFYNFAVVPHVHERDAFWEMKEKGEAYKKPDHYEEIHMPKNSGAGIVIAAFSTIFGFAMIWHIWWLAIVGFAGMIITWIVKSFDEDVDYYVPVAEIEKLENQHFDEITKAGLKNGN
Cytochrome bo(3) ubiquinol … 3: MATDTLTHATAHAHEHGHHDAGGTKIFGFWIYLMSDCILFSILFATYAVLVNGTAGGPTGKDIFELPFVLVETFLLLFSSITYGMAAIAMYKNNKSQVISWLALTWLFGAGFIGMEIYEFHHLIVNGMGPDRSGFLSAFFALVGTHGLHVTSGLIWMAVLMVQIARRGLTSTNRTRIMCLSLFWHFLDVVWICVFTVVYLMGAM
Cytochrome bo(3) ubiquinol … 4: MSHSTDHSGASHGSVKTYMTGFILSIILTVIPFWMVMTGAASPAVILGTILAMAVVQVLVHLVCFLHMNTKSDEGWNMTAFVFTVLIIAILVVGSIWIMWNLNYNMMMH
Km [5]: ~1 µM

B4: Cytochrome bo (protein, UniProt P0ABJ1 25-315; P0ABI8 1-663; P0ABJ3 1-204; P0ABJ6 1-109, looked up)
Cytochrome bo(3) ubiquinol … 1: CNSALLDPKGQIGLEQRSLILTAFGLMLIVVIPAILMAVGFAWKYRASNKDAKYSPNWSHSNKVEAVVWTVPILIIIFLAVLTWKTTHALEPSKPLAHDEKPITIEVVSMDWKWFFIYPEQGIATVNEIAFPANTPVYFKVTSNSVMNSFFIPRLGSQIYAMAGMQTRLHLIANEPGTYDGISASYSGPGFSGMKFKAIATPDRAAFDQWVAKAKQSPNTMSDMAAFEKLAAPSEYNQVEYFSNVKPDLFADVINKFMAHGKSMDMTQPEGEHSAHEGMEGMDMSHAESAH
Cytochrome bo(3) ubiquinol … 2: MFGKLSLDAVPFHEPIVMVTIAGIILGGLALVGLITYFGKWTYLWKEWLTSVDHKRLGIMYIIVAIVMLLRGFADAIMMRSQQALASAGEAGFLPPHHYDQIFTAHGVIMIFFVAMPFVIGLMNLVVPLQIGARDVAFPFLNNLSFWFTVVGVILVNVSLGVGEFAQTGWLAYPPLSGIEYSPGVGVDYWIWSLQLSGIGTTLTGINFFVTILKMRAPGMTMFKMPVFTWASLCANVLIIASFPILTVTVALLTLDRYLGTHFFTNDMGGNMMMYINLIWAWGHPEVYILILPVFGVFSEIAATFSRKRLFGYTSLVWATVCITVLSFIVWLHHFFTMGAGANVNAFFGITTMIIAIPTGVKIFNWLFTMYQGRIVFHSAMLWTIGFIVTFSVGGMTGVLLAVPGADFVLHNSLFLIAHFHNVIIGGVVFGCFAGMTYWWPKAFGFKLNETWGKRAFWFWIIGFFVAFMPLYALGFMGMTRRLSQQIDPQFHTMLMIAASGAVLIALGILCLVIQMYVSIRDRDQNRDLTGDPWGGRTLEWATSSPPPFYNFAVVPHVHERDAFWEMKEKGEAYKKPDHYEEIHMPKNSGAGIVIAAFSTIFGFAMIWHIWWLAIVGFAGMIITWIVKSFDEDVDYYVPVAEIEKLENQHFDEITKAGLKNGN
Cytochrome bo(3) ubiquinol … 3: MATDTLTHATAHAHEHGHHDAGGTKIFGFWIYLMSDCILFSILFATYAVLVNGTAGGPTGKDIFELPFVLVETFLLLFSSITYGMAAIAMYKNNKSQVISWLALTWLFGAGFIGMEIYEFHHLIVNGMGPDRSGFLSAFFALVGTHGLHVTSGLIWMAVLMVQIARRGLTSTNRTRIMCLSLFWHFLDVVWICVFTVVYLMGAM
Cytochrome bo(3) ubiquinol … 4: MSHSTDHSGASHGSVKTYMTGFILSIILTVIPFWMVMTGAASPAVILGTILAMAVVQVLVHLVCFLHMNTKSDEGWNMTAFVFTVLIIAILVVGSIWIMWNLNYNMMMH
Vmax ([5]; from Bekker et al., 2009): 225^c mol O/mol cytochrome bd/s
